Columns and labels:
[1] = molecular target: T1, cIAP1 (Homo sapiens, UniProt Q13490); assay: Co-immunoprecipitation of DDX3 mutant with cIAP1; type: binding
T1 construct: endogenous in cells
Experimental: Anti-DDX3 or anti-TRAIL-R2 antibody was conjugated to Sepharose beads (Sigma). The composition of the TRAIL-R2 DISC was determined as follows. 5×10^6 cells (if not otherwise indicated) were treated with 500 ng/ml of TRA-8 for the indicated time at 37° C. and then lysed in immunoprecipitation-lysis buffer (20 mM Tris-HCl, pH 7.4, 150 mM NaCl, 0.2% NONIDET P40, and 10% glycerol and complete protease inhibitor cock-tail) or lysed without treatment (unstimulated condition). […] After immunoprecipitation, the beads were washed four times with lysis buffer. The beads were then washed five times with 10 mM Tris buffer and resuspended in loading buffer for SDS-PAGE and immunoblotting analyses.

[2] = tested on: TRA-8-resistant tumor cells; assay: ATPLITE assay of TRA-8-resistant tumor cells transfected with DDX3ΔCARD; type: cell-based; details: four lines, adenoviral vector, 500 ng/ml TRA-8 overnight
Experimental: Cytotoxicity analysis of tumor cell susceptibility to TRA-8, 2E12, and TRAIL-mediated apoptosis. Cells (1,000 cells per well) were seeded into 96-well plates in triplicate with eight concentrations (double serial dilutions from 1000 ng/ml) of TRA-8, 2E12, or TRAIL. Cell viability was determined after overnight culture using an ATPLITE™ assay according to the manufacturer's instructions (Packard Instruments, Meriden, Conn.). The results are presented as the precentage of viable cells in treated wells compared to medium control wells.

T1 sequence (Q13490 whole entry): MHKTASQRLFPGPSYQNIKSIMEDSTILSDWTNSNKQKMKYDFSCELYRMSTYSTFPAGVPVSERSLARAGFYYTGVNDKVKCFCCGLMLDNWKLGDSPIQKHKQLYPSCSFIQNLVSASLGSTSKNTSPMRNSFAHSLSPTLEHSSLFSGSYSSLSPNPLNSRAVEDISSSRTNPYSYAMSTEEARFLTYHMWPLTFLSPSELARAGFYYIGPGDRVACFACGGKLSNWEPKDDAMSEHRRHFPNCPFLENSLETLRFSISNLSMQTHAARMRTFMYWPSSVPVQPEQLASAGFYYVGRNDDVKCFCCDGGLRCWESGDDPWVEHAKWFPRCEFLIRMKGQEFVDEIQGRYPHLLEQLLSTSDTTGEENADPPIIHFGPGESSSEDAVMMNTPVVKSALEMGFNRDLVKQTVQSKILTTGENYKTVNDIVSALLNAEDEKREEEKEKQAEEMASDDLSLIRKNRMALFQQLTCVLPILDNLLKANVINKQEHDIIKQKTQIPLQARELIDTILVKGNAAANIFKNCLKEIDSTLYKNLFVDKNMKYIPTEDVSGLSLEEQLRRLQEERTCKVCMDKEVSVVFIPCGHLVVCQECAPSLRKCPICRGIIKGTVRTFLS

B1: DDX3ΔCARD: dominant negative mutant DDX3 lacking aa 1-150 (CARD-truncated DDX3) (protein)
chain: FSGGNTGINFEKYDDIPVEATGNNCPPHIESFSDVEMGEIIMGNIELTRYTRPTPVQKHAIPIIKEKRDLMACAQTGSGKTAAFLLPILSQIYSDGPGEALRAMKENGRYGRRKQYPISLVLAPTRELAVQIYEEARKFSYRSRVRPCVVYGGADIGQQIRDLERGCHLLVATPGRLVDMMERGKIGLDFCKYLVLDEADRMLDMGFEPQIRRIVEQDTMPPKGVRHTMMFSATFPKEIQMLARDFLDEYIFLAVGRVGSTSENITQKVVWVEESDKRSFLLDLLNATGKDSLTLVFVETKKGADSLEDFLYHEGYACTSIHGDRSQRDREEALHQFRSGKSPILVATAVAARGLDISNVKHVINFDLPSDIEEYVHRIGRTGRVGNLGLATSFFNERNINITKDLLDLLVEAKQEVPSWLENMAYEHHYKGSSRGRSKSSRFSGGFGARDYRQSSGASSSSFSSSRASSSRSGGGGHGSSRGFGGGGYGGFYNSDGYGGNYNSQGVDWWGN
- interaction with cIAP1 [1]: fails to interact with cIAP1
- susceptibility to TRA-8-induced apoptosis [2]: regained their susceptibility to TRA-8-induced apoptosis

— patent US9528993B2, “Agents and methods related to screening for resistance to DR5 and reducing resistance to DR5 agonists” (The UAB Research Foundation, priority 2005, dated 2016)
